Like-named read-outs stand apart in the source and are kept apart here.
What was measured:
[1] = target: T1, recombinant SARS-CoV-2 spike RBD (untagged) (SARS-CoV-2, UniProt P0DTC2 319-541); assay: SPR
T1 construct: domain: RBD

SARS-CoV-2 spike protein [2] = target: T2, SARS-CoV-2 spike protein (SARS-CoV-2, UniProt P0DTC2 14-1273); assay: cell-based or functional assay
[3] = target: T3, recombinant SARS-CoV-2 spike S1-His (SARS-CoV-2, UniProt P0DTC2 16-685); assay: pull-down on immobilized S1, band quantified
T3 construct: domain: S1

[4] = target: T1, recombinant SARS-CoV-2 spike RBD …; assay: SPR; remark: listed apart in the source
SARS-CoV-2 spike protein [5] = target: T2, SARS-CoV-2 spike protein; assay: cell-based or functional assay; remark: listed apart in the source
[6] = target: SARS-CoV-1 spike on pseudovirus (SARS-CoV-1, UniProt P59594 14-1255); assay: cell-based or functional assay
[7] = target: T1, recombinant SARS-CoV-2 spike RBD …; assay: periplasm pull-down on immobilized S1-RBD, SDS-PAGE
[8] = target: T4, recombinant SARS-CoV-2 spike S2-His (SARS-CoV-2, UniProt P0DTC2 686-1213); assay: pull-down on immobilized S2, band quantified
T4 construct: domain: S2

B1: S1-RBD-23 (VHH)
VHH: QVHLVESGGDLVQPGGSLRLSCVASGSGFENNAITWYRQAPGKERELVSGITSGGSTNYADSVKGRFTISRDNAKNTVYLEMNSLKPEDTAVYLCQAVAWDSRRRSVVAFWGQGTQVTVS
[1]
  Kd: 0.0159 nM
  koff: 4.61e-05 s⁻¹
  kon: 2.89e+06 M⁻¹ s⁻¹
SARS-CoV-2 spike protein [2]
  PSV neutralisation IC50: 7.31 nM

B2: S1-18 (VHH)
VHH: QVRLVESGGGLVQPGGSLRLSCVVSGVSGSAFRFNRLGWYRQPPGKERELVASISSGGSTNYADSVKGRFTISRDNAKSTVSLQMNSLKPEDTAVYYCNIRADFFSSGRTGDWGQGTQVTVS
notes: also called S1 Nanobody # 18
[3]
  binding result: binds

B3: S1-RBD-40 (VHH)
VHH: QVQLVESGGGLVQAGGSLRLSCAASGITFSNYGMVWWRQAPGKQREFVASISSGRDTNYADFVKGRFTISRDNAKNTVHLQMNSLKPEDTAVYYCYTVTDRSDYWGQGTQVTVS
[4]
  Kd: 0.0371 nM
  koff: 2.77e-05 s⁻¹
  kon: 747000 M⁻¹ s⁻¹
SARS-CoV-2 spike protein [5]
  PSV neutralisation IC50: 25.6 nM

B4: S1-1 (VHH)
VHH: QVQLVESGGGLVQAGGSLRLSCAASGMPFSSYAMGWFRQAPGKEREFVAAVNWNGISTYLADSVKGRFTASRDNAKNTAYLQMNSLKPEDTAVYYCAADSKGWSEWGMDYWGKGTLVTVS
[6]
  SARS-CoV-1 PSV neutralisation IC50: 8.62 nM

B5: S1-RBD-13 (VHH)
VHH: EVQLVESGGGLVQAGGSLRLSCAAPTLTLSSHTIGWFRQAPGKEREGVSYIPMTGLPIYCRDSVKGRFTISTDNAKNTVYLQMDSLKPEDTAVYYCAALLGVRSRMCPESVYTYWGQGTQVTVS
notes: also called S1-RBD Nanobody # 13
[7]
  binding result: binds

B6: S2-12 (VHH)
VHH: QVQLVESGGGLVQAGGSLRLSCVASEPTFSSRTMGWFRQAPGKERDFVAAMPWWKGALPNYKDSVKGRFTISIDSAKNTMYLQMNSLKPEDTAVYYCAASKTWSPRTEVATEHEFRGQGTQVTVS
notes: also called S2 Nanobody # 12
[8]
  binding result: binds

B7: S2-20 (VHH)
VHH: QVQLVESGGGLVQPGGSLRLSCAASGFTLTYYTISWFRQAPGKEREWVSSSRISGNTYYTDSVKGRFTISRDNAKSVVYLQMNSLKPEDTATYYCASGRNIPYDTYTNPTKYDYWGRGTQVTVS
notes: also called S2 Nanobody # 20
[8]
  binding result: binds

B8: S2-49 (VHH)
VHH: DVQLVESGGGLVQPGGSLRLSCAVSGLTLPYFTISWFRQAPGKEREWVSSSRITGNTYYADSVKGRFTVSRDNAKSTVYLQMNRLKAEDTATYYCASGRNINYYTNSAEYNYWGRGTQVTVS
notes: also called S2 Nanobody # 49
[8]
  binding result: binds

B9: S2-24 (VHH)
VHH: QVQLVESGGGLVQAGGSLRLSCAASGVTFSSHHMAWYRQTPGKQRELVATLASGGDTNYADSVKGRFTISRDNTKNTIYLQMNSLKPEDTAVYYCNARLWATGFRDYWGQGTQVTVS
notes: also called S2 Nanobody # 24
[8]
  binding result: binds

B10: S2-29 (VHH)
VHH: QVQLVESGGGLVQPGGSLRLSCAASGRIFSSNAMGWYRQAPGKEREWVACISSGSSTNYADSVKGRFTISRDNAKNTVYLQMNSLKPEDTAVYYCISKEVGWCGREGPIGSWGQGTQVTVS
notes: also called S2 Nanobody # 29
[8]
  binding result: binds

B11: S2-37 (VHH)
VHH: QVQVMESGGGLVQAGGSLRLSCAASTGILGGYDMRWYRQTPGNERELVASISSDGSTNYVDFVKGRFTISSDNAKNTVYLQMDSLKSEDTAVYYCNMRSTYYAIDYWGRGTQVTVS
notes: also called S2 Nanobody # 37
[8]
  binding result: binds

B12: S1-3 (VHH)
VHH: QVQLVESGGGLVQAGGSLRLSCAASGSTFSNTGLGWYRQAPGKQREWVASISPSGSTSYLDSVRGRFIFSRDNAKNIAYLQMNSLKPEDTAVYYCNTLPRSGSWGQGTQVTVS
[6]
  SARS-CoV-1 PSV neutralisation IC50: 4160 nM

B13: S2-30 (VHH)
VHH: QVQLVESGGGLVQAGGSLRLSCAASGSTFGNYAMGWYRQPPQAPGNQRDLVAFISTTGSTNYADSVKGRFTISRDNAKNTMYLQMNSLKPEDTAVYYCQAIERIVGYVSWGQGTQVTVS
notes: also called S2 Nanobody # 30
[8]
  binding result: binds

B14: S1-RBD-29 (VHH)
VHH: QVQLVESGGGLVQDGGSLRLSCAASGLASIVFNMGWFRQAPGKEREFVAGILGSGQSTYYGNSVKGRFTISRDSAKNTVYLQMNSLKPEDTAVYYCAAGGRLDLVNTTGGYEPTYWGQGTQVTVS
[4]
  Kd: 2.51 nM
  koff: 0.00135 s⁻¹
  kon: 536000 M⁻¹ s⁻¹
SARS-CoV-2 spike protein [5]
  PSV neutralisation IC50: 9.53 nM

B15: S2-34 (VHH)
VHH: QVQLVESGGGLVQTGGSLRLSCAASGITFNTYGMGWYRQAPGKQRELVAGIPSIGNINYARFVQGRFTVSRDDGKKAVYLQMNSLKPEDTAIYYCNLQTRFGTNYWGQGTQVTVS
notes: also called S2 Nanobody # 34
[8]
  binding result: binds

B16: S1-8 (VHH)
VHH: QVQLVESGGGLVQAGGSLRLSCAASGRVLSSYVMGWFRQAPGKEREFVAAIRWNGGSTFYADSVKGRLTISRDNAKNTVYLQMNSLKPEDTAAYYCAASPRTMYDATYYYSRTSYDYWGQGTQVTVS
notes: also called S1 Nanobody # 8
[3]
  binding result: binds

B17: S2-23 (VHH)
VHH: QVQLVESGGGLVQPGGSLRLSCAASGRTFSSAMMGWFRQAPGKEREFVASIDWRYQYRYYADSVKGRFTISRDNAKNMVYLQMNSLKPEDTAVYYCACQIERSGIYHYEDSNKYQSWGQGTQVSVS
notes: also called S2 Nanobody # 23
[8]
  binding result: binds

B18: S2-44 (VHH)
VHH: QVQFVESGGGLVQPGGSLRLSCVGSEFTLDNYDIGWFRQAPGKEREWVSCITPRGNIINYADSVKGRFTISRDNAKNTAFLQMNSLKPEDTAVYYCARSSALYDCSQRQTRFFSSWGQGTQVTVS
notes: also called S2 Nanobody # 44
[8]
  binding result: binds

B19: S2-45 (VHH)
VHH: QVQLVESGGGLVQAGGSLRLSCAASGLTFSSRAMAWFRQAPGKEREFVARISWSGRNTYYGDSVKGRFTISRDNAKNTVYLQMSSLEPEDTAVYRCAADQQYYNRYYNDEQGYAFWGQGTQVTVS
notes: also called S2 Nanobody # 45
[8]
  binding result: binds

B20: S1-RBD-16 (VHH)
VHH: QVQLVESGGGLVQSGGSLRLSCVASGRGFDRYPMGWFRQAPGKEREFVGGINWNGANTYYADSVKGRFTISRDNTKNTVYLQMNSLKPEDTALYYCAADQHYMGSPPPKEYEYDYWGQGTQVTVS
[1]
  Kd: 3.73 nM
  koff: 6.25e-05 s⁻¹
  kon: 16800 M⁻¹ s⁻¹
SARS-CoV-2 spike protein [2]
  PSV neutralisation IC50: 79.2 nM

B21: S1-13 (VHH)
VHH: EVQLVESGGGLVQPGGSLKLSCAASGFTLDDYTIGWFRQAPGKEREGVSYISSSGSNSYYEDSVKGRFTISRDNAKSTVYLQMNSLKPEDTAVYYCAARRVWQQTIVVRGPVHYEYWGHGTQVTVS
notes: also called S1 Nanobody # 13
[3]
  binding result: binds

From patent publication US20230331824A1 (ROCKEFELLER UNIVERSITY, published 2023)
